Laboratory results from publication doi:10.1101/2020.05.19.105320.

Target: H10CLPX Zinc binding domain (CLPXZBD) (human)
Assay: SEC

Row | stoichiometry N | Molecule
1 | 2 | H10CLPX Zinc binding domain (CLPXZBD) (domain or fragment)
2 | 1 | H10PDIP38 (PDIP38 with an N-terminal H10-tag) (natural protein) SSRNRPEGKVLETVGVFEVPKQNGKYETGQLFLHSIFGYRGVVLFPWQARLYDRDVASAAPEKAENPAGHGSKEVKGKTHTYYQVLIDARDCPHISQRSQTEAVTFLANHDDSRALYAIPGLDYVSHEDILPYTSTDQVPIQHELFERFLLYDQTKAPPFVARETLRAWQEKNHPWLELSDVHRETTENIRVTVIPFYMGMREAQNSHVYWWRYCIRLENLDSDVVQLRERHWRIFSLSGTLETVRGRGVVGREPVLSKEQPAFQYSSHVSLQASSGHMWGTFRFERPDGSHFDVRIPPFSLESNKDEKTPPSGLHW
